The test addresses calmodulin (recombinant rat CaM) (rat, UniProt P0DP29 2-149). As to the kind of experiment: NMR titration.

The stoichiometry N is a count of units in the complex or per binding partner.

acyl = not defined here

For acyl-SSKGTKKFRLEGTLLRTYVCHIIFKT-NH2 (reading uncertain) [Cx50p^141–166 (connexin50 CaM-binding domain peptide, residues 141–166)], the “stoichiometry N” value turned out to be 1.

These data come from paper PMC3351833 (Biochemical Journal, 2011).
